Tests used:
Assay in all cases: cell-based or functional assay
[1] = target: T1, FcγIIIA Receptor on the effector cells (CD16 / FcγRIII) (human, UniProt P08637 17-254)
[2] = target: T1, FcγIIIA Receptor on the effector cells …; remark: listed apart in the source
[3] = target: C1q Receptor in the complement system (rabbit serum as the source of complement) (rabbit)
[4] = target: T1, FcγIIIA Receptor on the effector cells …; remark: listed apart in the source

T1 sequence (P08637 17-254): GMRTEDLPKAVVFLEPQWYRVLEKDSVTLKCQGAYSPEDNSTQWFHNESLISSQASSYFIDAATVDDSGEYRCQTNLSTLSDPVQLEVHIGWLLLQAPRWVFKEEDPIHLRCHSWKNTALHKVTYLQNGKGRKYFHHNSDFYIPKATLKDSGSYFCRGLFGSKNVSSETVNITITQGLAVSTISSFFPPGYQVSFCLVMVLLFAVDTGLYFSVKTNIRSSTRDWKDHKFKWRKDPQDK

- ADCC EC50, fold lower than OCREVUS [1]: ~25 fold
- ADCC EC50 (Raji target cells, KILR CD16a effector cells) [2]: 0.00242 ng/mL
- CDC EC50 (Jeko-1 cells, rabbit complement) [3]: 670 ng/mL
- EC50 of ADCC assay Using Primary NK Cells [4]: 49000 ng/mL
B1: TG-1101 (TG Therapeutics, Inc.) (antibody, human IgG1, kappa)
heavy: not shown
light: QIVLSQSPAILSASPGEKVTMTCRASSSVSYMHWYQQKPGSSPKPWIYATSNLASGVPARFSGSGSGTSYSFTISRVEAEDAATYYCQQWTFNPPTFGGGTRLEIKRTVAAPSVFIFPPSDEQLKSGTASVVCLLNNFYPREAKVQWKVDNALQSGNSQESVTEQDSKDSTYSLSSTLTLSKADYEKHKVYACEVTHQGLSSPVTKSFNRGEC

Reference: patent US11814439 (TG THERAPEUTICS, dated 2023)
